# Publication PMC9482650, “Quantitative fragmentomics allow affinity mapping of interactomes” (Nature Communications, 2022)
# Numbering of substitutions follows the chain as printed.
# T1: MPDZ_5, O75970
# T1 sequence (O75970 695-796, limits assumed, looked up): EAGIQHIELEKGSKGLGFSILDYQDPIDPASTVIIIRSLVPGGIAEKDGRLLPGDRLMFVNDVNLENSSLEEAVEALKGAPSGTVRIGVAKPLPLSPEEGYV
# T2: PDZD7_3, Q9H5P4
# T2 sequence (Q9H5P4 857-944, limits assumed, looked up): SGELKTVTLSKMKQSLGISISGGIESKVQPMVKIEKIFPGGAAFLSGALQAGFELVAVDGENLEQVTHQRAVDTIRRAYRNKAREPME
# T3: NHERF3_3, Q5T2W1
# T3 sequence (Q5T2W1 238-333, limits assumed, looked up): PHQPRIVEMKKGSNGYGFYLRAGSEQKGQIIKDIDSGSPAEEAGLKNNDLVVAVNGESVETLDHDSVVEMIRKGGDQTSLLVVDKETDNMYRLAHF
# T4: GRIP1_4, Q9Y3R0
# T4 sequence (Q9Y3R0 467-571, limits assumed, looked up): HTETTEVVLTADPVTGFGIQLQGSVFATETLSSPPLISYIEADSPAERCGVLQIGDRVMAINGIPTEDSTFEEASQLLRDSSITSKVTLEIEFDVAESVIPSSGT
# T5: LIN7B, Q9HAP6
# T5 sequence (Q9HAP6 88-185, limits assumed, looked up): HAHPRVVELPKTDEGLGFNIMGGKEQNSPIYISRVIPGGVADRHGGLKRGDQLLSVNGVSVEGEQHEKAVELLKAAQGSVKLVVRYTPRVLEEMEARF
# T6: HTRA3, P83110
# T6 sequence (P83110 354-453, limits assumed, looked up): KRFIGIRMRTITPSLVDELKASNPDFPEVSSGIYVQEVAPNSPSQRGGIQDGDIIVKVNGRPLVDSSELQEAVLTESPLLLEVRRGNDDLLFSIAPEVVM
# T7: LIN7C, Q9NUP9
# T7 sequence (Q9NUP9 88-185, limits assumed, looked up): T5 sequence (Q9HAP6 88-185, limits assumed, looked up) with A2S, D13E, V35I, V40I, Q65H, S79K, R89K, A96S
# T8: APBA2_2, Q99767
# T8 sequence (Q99767 654-744, limits assumed, looked up): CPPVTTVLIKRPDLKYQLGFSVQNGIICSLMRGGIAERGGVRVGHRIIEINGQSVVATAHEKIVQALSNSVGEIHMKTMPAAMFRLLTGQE
# T9: APBA3_1, O96018
# T9 sequence (O96018 389-490, limits assumed, looked up): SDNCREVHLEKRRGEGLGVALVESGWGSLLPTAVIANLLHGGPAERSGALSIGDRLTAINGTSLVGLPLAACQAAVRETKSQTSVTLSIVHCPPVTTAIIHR
# Target: FRMPD3, Q5JV73
# Sequence (Q5JV73 12-100): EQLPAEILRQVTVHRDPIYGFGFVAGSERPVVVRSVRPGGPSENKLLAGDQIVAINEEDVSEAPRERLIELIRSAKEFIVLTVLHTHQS
# Test: holdup assay
# Parameters: key: below the threshold = too weak to quantify, mostly under pKd 3.1 to 4
# Conditions: plain residues with an end cap or a label only (N-terminal biotin on a linker: ado-ado)
row,Binder,pKd
1,"EWTDERQSKV [GAB3, Q8WWW8]",below the threshold
2,"TGLWKSETTV [ADGRA2, Q96PE1]",below the threshold

# Target: LDB3, O75112
# Sequence (O75112 1-94): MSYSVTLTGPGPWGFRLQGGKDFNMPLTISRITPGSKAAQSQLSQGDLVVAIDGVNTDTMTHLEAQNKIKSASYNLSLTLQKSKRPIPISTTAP
# Test: holdup assay
# Parameters: key: below the threshold = too weak to quantify, mostly under pKd 3.1 to 4
# Conditions: plain residues with an end cap or a label only (N-terminal biotin on a linker: ado-ado)
row,Binder,pKd
1,"EWTDERQSKV [GAB3, Q8WWW8]",below the threshold
2,"TGLWKSETTV [ADGRA2, Q96PE1]",below the threshold

# Target: ARHGEF12, Q9NZN5-2
# Sequence (Q9NZN5 other isoform, or with tags, fused parts or gaps): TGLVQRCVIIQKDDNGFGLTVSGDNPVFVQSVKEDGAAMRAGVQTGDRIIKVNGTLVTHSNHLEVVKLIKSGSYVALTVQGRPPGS
# Test: holdup assay
# Parameters: key: below the threshold = too weak to quantify, mostly under pKd 3.1 to 4
# Conditions: plain residues with an end cap or a label only (N-terminal biotin on a linker: ado-ado)
row,Binder,pKd
1,"EWTDERQSKV [GAB3, Q8WWW8]",3.68
2,"TGLWKSETTV [ADGRA2, Q96PE1]",4.06

# Target: IL16_4, Q14005
# Sequence (Q14005 1229-1329): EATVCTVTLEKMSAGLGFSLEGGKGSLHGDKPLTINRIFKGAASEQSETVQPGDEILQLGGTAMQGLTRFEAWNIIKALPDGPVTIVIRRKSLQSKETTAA
# Test: holdup assay
# Parameters: key: below the threshold = too weak to quantify, mostly under pKd 3.1 to 4
# Conditions: plain residues with an end cap or a label only (N-terminal biotin on a linker: ado-ado)
row,Binder,pKd
1,"EWTDERQSKV [GAB3, Q8WWW8]",below the threshold
2,"TGLWKSETTV [ADGRA2, Q96PE1]",below the threshold

# Target: T1, MPDZ_5, O75970
# Test: holdup assay
# Parameters: key: below the threshold = too weak to quantify, mostly under pKd 3.1 to 4
# Conditions: plain residues with an end cap or a label only (N-terminal biotin on a linker: ado-ado)
row,Binder,pKd
1,"EWTDERQSKV [GAB3, Q8WWW8]",below the threshold
2,"TGLWKSETTV [ADGRA2, Q96PE1]",below the threshold

# Target: DLG1_1, Q12959
# Test: holdup assay
# Parameters: key: below the threshold = too weak to quantify, mostly under pKd 3.1 to 4
# Conditions: plain residues with an end cap or a label only (N-terminal biotin on a linker: ado-ado)
row,Binder,pKd
1,"EWTDERQSKV [GAB3, Q8WWW8]",3.48
2,"TGLWKSETTV [ADGRA2, Q96PE1]",4.85

# Target: T2, PDZD7_3, Q9H5P4
# Test: holdup assay
# Parameters: key: below the threshold = too weak to quantify, mostly under pKd 3.1 to 4
# Conditions: plain residues with an end cap or a label only (N-terminal biotin on a linker: ado-ado)
row,Binder,pKd
1,"EWTDERQSKV [GAB3, Q8WWW8]",3.82
2,"TGLWKSETTV [ADGRA2, Q96PE1]",4.65

# Target: DLG4_3, P78352
# Sequence (P78352 306-403): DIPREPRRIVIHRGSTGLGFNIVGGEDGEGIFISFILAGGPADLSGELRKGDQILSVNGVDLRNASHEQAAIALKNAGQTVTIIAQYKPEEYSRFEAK
# Test: holdup assay
# Parameters: key: below the threshold = too weak to quantify, mostly under pKd 3.1 to 4
# Conditions: plain residues with an end cap or a label only (N-terminal biotin on a linker: ado-ado)
row,Binder,pKd
1,"EWTDERQSKV [GAB3, Q8WWW8]",below the threshold
2,"TGLWKSETTV [ADGRA2, Q96PE1]",4.47

# Target: T3, NHERF3_3, Q5T2W1
# Test: holdup assay
# Parameters: key: below the threshold = too weak to quantify, mostly under pKd 3.1 to 4
# Conditions: plain residues with an end cap or a label only (N-terminal biotin on a linker: ado-ado)
row,Binder,pKd
1,"EWTDERQSKV [GAB3, Q8WWW8]",below the threshold
2,"TGLWKSETTV [ADGRA2, Q96PE1]",below the threshold

# Target: Inadl_5, Q8NI35
# Sequence (Q8NI35 673-780): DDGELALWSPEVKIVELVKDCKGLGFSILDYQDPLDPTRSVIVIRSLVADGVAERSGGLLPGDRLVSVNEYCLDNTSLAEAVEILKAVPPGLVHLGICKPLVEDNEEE
# Test: holdup assay
# Parameters: key: below the threshold = too weak to quantify, mostly under pKd 3.1 to 4
# Conditions: plain residues with an end cap or a label only (N-terminal biotin on a linker: ado-ado)
row,Binder,pKd
1,"EWTDERQSKV [GAB3, Q8WWW8]",below the threshold
2,"TGLWKSETTV [ADGRA2, Q96PE1]",below the threshold

# Target: LAP2, Q96RT1
# Sequence (Q96RT1 other isoform, or with tags, fused parts or gaps): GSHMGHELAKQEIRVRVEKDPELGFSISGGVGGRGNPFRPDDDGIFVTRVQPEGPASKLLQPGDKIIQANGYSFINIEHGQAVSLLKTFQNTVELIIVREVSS
# Test: holdup assay
# Parameters: key: below the threshold = too weak to quantify, mostly under pKd 3.1 to 4
# Conditions: plain residues with an end cap or a label only (N-terminal biotin on a linker: ado-ado)
row,Binder,pKd
1,"EWTDERQSKV [GAB3, Q8WWW8]",3.56
2,"TGLWKSETTV [ADGRA2, Q96PE1]",3.7

# Target: MAGI2_3, Q86UL8
# Sequence (Q86UL8 600-682): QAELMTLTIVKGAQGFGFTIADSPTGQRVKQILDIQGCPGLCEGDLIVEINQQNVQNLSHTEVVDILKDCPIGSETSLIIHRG
# Test: holdup assay
# Parameters: key: below the threshold = too weak to quantify, mostly under pKd 3.1 to 4
# Conditions: plain residues with an end cap or a label only (N-terminal biotin on a linker: ado-ado)
row,Binder,pKd
1,"EWTDERQSKV [GAB3, Q8WWW8]",below the threshold
2,"TGLWKSETTV [ADGRA2, Q96PE1]",below the threshold

# Target: HTRA1, Q92743
# Sequence (Q92743 360-477): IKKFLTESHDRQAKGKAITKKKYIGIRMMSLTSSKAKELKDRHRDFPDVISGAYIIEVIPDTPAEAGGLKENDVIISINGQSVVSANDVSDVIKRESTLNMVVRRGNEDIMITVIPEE
# Test: holdup assay
# Parameters: key: below the threshold = too weak to quantify, mostly under pKd 3.1 to 4
# Conditions: plain residues with an end cap or a label only (N-terminal biotin on a linker: ado-ado)
row,Binder,pKd
1,"EWTDERQSKV [GAB3, Q8WWW8]",below the threshold
2,"TGLWKSETTV [ADGRA2, Q96PE1]",4.27

# Target: PDZRN4_1, Q6ZMN7
# Sequence (Q6ZMN7 213-318): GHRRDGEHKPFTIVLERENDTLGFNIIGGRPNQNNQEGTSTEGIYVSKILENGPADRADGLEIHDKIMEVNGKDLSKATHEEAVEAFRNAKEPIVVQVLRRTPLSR
# Test: holdup assay
# Parameters: key: below the threshold = too weak to quantify, mostly under pKd 3.1 to 4
# Conditions: plain residues with an end cap or a label only (N-terminal biotin on a linker: ado-ado)
row,Binder,pKd
1,"EWTDERQSKV [GAB3, Q8WWW8]",3.86
2,"TGLWKSETTV [ADGRA2, Q96PE1]",4.24

# Target: T4, GRIP1_4, Q9Y3R0
# Test: holdup assay
# Parameters: key: below the threshold = too weak to quantify, mostly under pKd 3.1 to 4
# Conditions: plain residues with an end cap or a label only (N-terminal biotin on a linker: ado-ado)
row,Binder,pKd
1,"EWTDERQSKV [GAB3, Q8WWW8]",below the threshold
2,"TGLWKSETTV [ADGRA2, Q96PE1]",below the threshold

# Target: T5, LIN7B, Q9HAP6
# Test: holdup assay
# Parameters: key: below the threshold = too weak to quantify, mostly under pKd 3.1 to 4
# Conditions: plain residues with an end cap or a label only (N-terminal biotin on a linker: ado-ado)
row,Binder,pKd
1,"EWTDERQSKV [GAB3, Q8WWW8]",below the threshold
2,"TGLWKSETTV [ADGRA2, Q96PE1]",3.51

# Target: T6, HTRA3, P83110
# Test: holdup assay
# Parameters: key: below the threshold = too weak to quantify, mostly under pKd 3.1 to 4
# Conditions: plain residues with an end cap or a label only (N-terminal biotin on a linker: ado-ado)
row,Binder,pKd
1,"EWTDERQSKV [GAB3, Q8WWW8]",below the threshold
2,"TGLWKSETTV [ADGRA2, Q96PE1]",below the threshold

# Target: MAGI2_4, Q86UL8
# Sequence (Q86UL8 772-865): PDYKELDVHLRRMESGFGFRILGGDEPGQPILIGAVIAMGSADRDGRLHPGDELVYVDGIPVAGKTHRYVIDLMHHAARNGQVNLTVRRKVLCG
# Test: holdup assay
# Parameters: key: below the threshold = too weak to quantify, mostly under pKd 3.1 to 4
# Conditions: plain residues with an end cap or a label only (N-terminal biotin on a linker: ado-ado)
row,Binder,pKd
1,"EWTDERQSKV [GAB3, Q8WWW8]",below the threshold
2,"TGLWKSETTV [ADGRA2, Q96PE1]",4.88

# Target: T7, LIN7C, Q9NUP9
# Test: holdup assay
# Parameters: key: below the threshold = too weak to quantify, mostly under pKd 3.1 to 4
# Conditions: plain residues with an end cap or a label only (N-terminal biotin on a linker: ado-ado)
row,Binder,pKd
1,"EWTDERQSKV [GAB3, Q8WWW8]",below the threshold
2,"TGLWKSETTV [ADGRA2, Q96PE1]",4.29

# Target: Inadl_10, Q8NI35
# Sequence (Q8NI35 1673-1763): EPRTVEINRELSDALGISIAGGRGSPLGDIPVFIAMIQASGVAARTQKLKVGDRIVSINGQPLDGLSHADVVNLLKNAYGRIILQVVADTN
# Test: holdup assay
# Parameters: key: below the threshold = too weak to quantify, mostly under pKd 3.1 to 4
# Conditions: plain residues with an end cap or a label only (N-terminal biotin on a linker: ado-ado)
row,Binder,pKd
1,"EWTDERQSKV [GAB3, Q8WWW8]",below the threshold
2,"TGLWKSETTV [ADGRA2, Q96PE1]",below the threshold

# Target: IL16_1, Q14005
# Sequence (Q14005 210-306): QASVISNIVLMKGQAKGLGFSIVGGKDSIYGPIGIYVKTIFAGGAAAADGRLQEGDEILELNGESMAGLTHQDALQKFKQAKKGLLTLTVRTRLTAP
# Test: holdup assay
# Parameters: key: below the threshold = too weak to quantify, mostly under pKd 3.1 to 4
# Conditions: plain residues with an end cap or a label only (N-terminal biotin on a linker: ado-ado)
row,Binder,pKd
1,"EWTDERQSKV [GAB3, Q8WWW8]",3.97
2,"TGLWKSETTV [ADGRA2, Q96PE1]",3.77

# Target: T8, APBA2_2, Q99767
# Test: holdup assay
# Parameters: key: below the threshold = too weak to quantify, mostly under pKd 3.1 to 4
# Conditions: plain residues with an end cap or a label only (N-terminal biotin on a linker: ado-ado)
row,Binder,pKd
1,"EWTDERQSKV [GAB3, Q8WWW8]",below the threshold
2,"TGLWKSETTV [ADGRA2, Q96PE1]",below the threshold

# Target: DLG4_2, P78352
# Sequence (P78352 155-259): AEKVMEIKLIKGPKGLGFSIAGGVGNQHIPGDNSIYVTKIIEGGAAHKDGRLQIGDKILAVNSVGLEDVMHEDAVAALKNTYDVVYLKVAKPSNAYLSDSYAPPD
# Test: holdup assay
# Parameters: key: below the threshold = too weak to quantify, mostly under pKd 3.1 to 4
# Conditions: plain residues with an end cap or a label only (N-terminal biotin on a linker: ado-ado)
row,Binder,pKd
1,"EWTDERQSKV [GAB3, Q8WWW8]",4.03
2,"TGLWKSETTV [ADGRA2, Q96PE1]",5.22

# Target: PDLIM1, O00151
# Sequence (O00151 1-87): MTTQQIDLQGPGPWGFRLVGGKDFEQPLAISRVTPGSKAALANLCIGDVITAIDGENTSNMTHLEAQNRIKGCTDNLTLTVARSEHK
# Test: holdup assay
# Parameters: key: below the threshold = too weak to quantify, mostly under pKd 3.1 to 4
# Conditions: plain residues with an end cap or a label only (N-terminal biotin on a linker: ado-ado)
row,Binder,pKd
1,"EWTDERQSKV [GAB3, Q8WWW8]",below the threshold
2,"TGLWKSETTV [ADGRA2, Q96PE1]",below the threshold

# Target: LNX1_3, Q8TBB1
# Sequence (Q8TBB1 500-596): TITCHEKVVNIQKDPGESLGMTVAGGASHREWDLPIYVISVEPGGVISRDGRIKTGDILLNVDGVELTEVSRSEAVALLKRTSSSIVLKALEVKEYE
# Test: holdup assay
# Parameters: key: below the threshold = too weak to quantify, mostly under pKd 3.1 to 4
# Conditions: plain residues with an end cap or a label only (N-terminal biotin on a linker: ado-ado)
row,Binder,pKd
1,"EWTDERQSKV [GAB3, Q8WWW8]",below the threshold
2,"TGLWKSETTV [ADGRA2, Q96PE1]",below the threshold

# Target: T9, APBA3_1, O96018
# Test: holdup assay
# Parameters: key: below the threshold = too weak to quantify, mostly under pKd 3.1 to 4
# Conditions: plain residues with an end cap or a label only (N-terminal biotin on a linker: ado-ado)
row,Binder,pKd
1,"EWTDERQSKV [GAB3, Q8WWW8]",below the threshold
2,"TGLWKSETTV [ADGRA2, Q96PE1]",below the threshold

# Target: GRIP2_7, Q9C0E4
# Sequence (Q9C0E4 934-1023): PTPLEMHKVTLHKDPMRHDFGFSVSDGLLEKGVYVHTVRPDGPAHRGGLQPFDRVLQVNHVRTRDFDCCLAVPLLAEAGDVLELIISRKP
# Test: holdup assay
# Parameters: key: below the threshold = too weak to quantify, mostly under pKd 3.1 to 4
# Conditions: plain residues with an end cap or a label only (N-terminal biotin on a linker: ado-ado)
row,Binder,pKd
1,"EWTDERQSKV [GAB3, Q8WWW8]",below the threshold
2,"TGLWKSETTV [ADGRA2, Q96PE1]",below the threshold

# Target: AHNAK1, Q09666
# Sequence (Q09666 4-100): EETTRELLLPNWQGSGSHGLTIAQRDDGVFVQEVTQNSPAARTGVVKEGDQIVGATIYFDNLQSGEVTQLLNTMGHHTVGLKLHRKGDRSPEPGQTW
# Test: holdup assay
# Parameters: key: below the threshold = too weak to quantify, mostly under pKd 3.1 to 4
# Conditions: plain residues with an end cap or a label only (N-terminal biotin on a linker: ado-ado)
row,Binder,pKd
1,"EWTDERQSKV [GAB3, Q8WWW8]",below the threshold
2,"TGLWKSETTV [ADGRA2, Q96PE1]",below the threshold

# Target: DLG2_2, Q15700
# Sequence (Q15700 189-283): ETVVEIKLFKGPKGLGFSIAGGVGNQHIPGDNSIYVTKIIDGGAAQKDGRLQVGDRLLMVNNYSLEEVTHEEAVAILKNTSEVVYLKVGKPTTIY
# Test: holdup assay
# Parameters: key: below the threshold = too weak to quantify, mostly under pKd 3.1 to 4
# Conditions: plain residues with an end cap or a label only (N-terminal biotin on a linker: ado-ado)
row,Binder,pKd
1,"EWTDERQSKV [GAB3, Q8WWW8]",3.89
2,"TGLWKSETTV [ADGRA2, Q96PE1]",5.16
